# Assay results published in patent publication US20260365708 (published 2026).
# Positions count from the first letter of the chain named. Names may count otherwise.
# T1: hIL10RalphaFc (human, UniProt Q13651)
# T1 chain: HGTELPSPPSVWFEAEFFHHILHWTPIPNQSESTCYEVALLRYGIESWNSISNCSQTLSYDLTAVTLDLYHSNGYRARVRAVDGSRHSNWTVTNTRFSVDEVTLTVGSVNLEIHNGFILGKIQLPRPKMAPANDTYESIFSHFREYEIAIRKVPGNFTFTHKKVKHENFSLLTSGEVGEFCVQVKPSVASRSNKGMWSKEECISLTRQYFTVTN
# T2: mIL10RalphaFc (mouse, UniProt Q61727)
# T2 chain: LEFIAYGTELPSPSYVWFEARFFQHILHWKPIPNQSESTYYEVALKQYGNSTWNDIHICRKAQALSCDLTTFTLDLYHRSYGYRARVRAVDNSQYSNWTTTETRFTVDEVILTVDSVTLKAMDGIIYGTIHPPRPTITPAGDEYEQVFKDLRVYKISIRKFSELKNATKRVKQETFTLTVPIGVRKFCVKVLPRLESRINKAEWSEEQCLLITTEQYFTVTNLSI
# B1: hIL10 T100L (protein)
# chain: SPGQGTQSENSCTHFPGNLPNMLRDLRDAFSRVKTFFQMKDQLDNLLLKESLLEDFKGYLGCQALSEMIQFYLEEVMPQAENQDPDIKAHVNSLGENLKLLRLRLRRCHRFLPCENKSKAVEQVKNAFNKLQEKGIYKAMSEFDIFINYIEAYMTMKIRN
# B2: hIL10 WT (protein)
# chain: B1 chain with L100T
# B3: h_SS0052_AA (hIL10 WT fused) (protein)
# chain: SPGQGTQSENSCTHFPGNLPNMLRDLRDAFSRVKTFFQMKDQLDNLLLKESLLEDFKGYLGCQALSEMIQFYLEEVMPQAENQDPDIKAHVNSLGENLKTLRLRLRRCHRFLPCENKSKAVEQVKNAFNKLQEKGIYKAMSEFDIFINYIEAYMTMKIRNSPGQGTQSENSCTHFPGNLPNMLRDLRDAFSRVKTFFQMKDQLDNLLLKESLLEDFKGYLGCQALSEMIQFYLEEVMPQAENQDPDIKAHVNSLGENLKTLRLRLRRCHRFLPCENKSKAVEQVKNAFNKLQEKGIYKAMSEFDIFINYIEAYMTMKIRN
# B4: h_SS0053_AA (hIL10 T100L fused) (protein)
# chain: SPGQGTQSENSCTHFPGNLPNMLRDLRDAFSRVKTFFQMKDQLDNLLLKESLLEDFKGYLGCQALSEMIQFYLEEVMPQAENQDPDIKAHVNSLGENLKLLRLRLRRCHRFLPCENKSKAVEQVKNAFNKLQEKGIYKAMSEFDIFINYIEAYMTMKIRNSPGQGTQSENSCTHFPGNLPNMLRDLRDAFSRVKTFFQMKDQLDNLLLKESLLEDFKGYLGCQALSEMIQFYLEEVMPQAENQDPDIKAHVNSLGENLKLLRLRLRRCHRFLPCENKSKAVEQVKNAFNKLQEKGIYKAMSEFDIFINYIEAYMTMKIRNGGSHHHHHHHH
# B5: mIL10 WT (protein)
# chain: SRGQYSREDNNCTHFPVGQSHMLLELRTAFSQVKTFFQTKDQLDNILLTDSLMQDFKGYLGCQALSEMIQFYLVEVMPQAEKHGPEIKEHLNSLGEKLKTLRMRLRRCHRFLPCENKSKAVEQVKSDFNKLQDQGVYKAMNEFDIFINCIEAYMMIKMKS
# B6: mIL10 T100L (protein)
# chain: B5 chain with T100L
# B7: WC163_AA (mIL10 WT fused) (protein)
# chain: GNCTHFPVGQSHMLLELRTAFSQVKTFFQTKDQLDNILLTDSLMQDFKGYLGCQALSEMIQFYLVEVMPQAEKHGPEIKEHLNSLGEKLKTLRMRLRRCHRFLPCENKSKAVEQVKSDFNKLQDQGVYKAMNEFDIFINCIEAYMMIKMKSSRGQYSREDNQYSREDNSCTHFPVGQSHMLLELRTAFSQVKTFFQTKDQLDNILLTDSLMQDFKGYLGCQALSEMIQFYLVEVMPQAEKHGPEIKEHLNSLGEKLKTLRMRLRRCHRFLPCENKSKAVEQVKSDFNKLQDQGVYKAMNEFDIFINCIEAYMMIKMKS
# B8: SS0051_AA (mIL10 T100L fused) (protein)
# chain: B7 chain with T91L, T258L
# Target: T1, hIL10RalphaFc
# Assay: SPR
row,Kd [nM],Binder
1,0.26,B1
2,0.06,B2
3,0.11,B3
4,0.07,B4

# Target: T2, mIL10RalphaFc
# Assay: SPR
row,Kd [nM],Binder
1,0.81,B5
2,1.92,B6
3,0.86,B7
4,0.73,B8
